Experimental data published in patent US20230235073A1 (ONA THERAPEUTICS S L, published 2023).

B1: ONA-0-v1 anti-CD36 antibody (murine IgA) (antibody)
heavy: QVQLKQSGADLVRPGASVKLSCKASGYTFTDYYINWVKQRPGQGLEWIARIYPGSGNTYYNEKFKGKATLTAEKSSSTAYMQLSSLTSEDSAVYFCARGIGGGFGMDYWGQGTSVTVSSESARNPTIYPLTLPPVLCSDPVIIGCLIHDYFPFGTMNVTWGKSGKDITTVNFPPALASGGRYTMSSQLTLPAVECPEGESVKCSVQHDSNPVQELDVNCSPTPPPPITIPSCQPSLSLQRPALEDLLLGSDASITCTLNGLRNPEGAAFTWEPSTGKDAVQKKAAQNSCGCYSVSSVLPGCAERWNSGASFKCTVTHPESGTLTGTIAKVTVNTFPPQVHLLPPPSEELALNELLSLTCLVRAFNPKEVLVRWLHGNEELSPESYLVFEPLKEPGEGATTYLVTSVLRVSAETWKQGDQYSCMVGHEALPMNFTQKTIDRLSGKPTNVSVSVIMSEGDGICY
light: SIVMTQTPKFLLVSAGDRITITCKASQSVSDDVAWYQQKPGQSPKLLIYYASNRYTGVPDRFTGSGYGTDFTFTISTVQAEDLAVYFCQQDYSSPLTFGAGTKLEIKRADAAPTVSIFPPSSEQLTSGGASVVCFLNNFYPKDINVKWKIDGSERQNGVLNSWTDQDSKDSTYSMSSTLTLTKDEYERHNSYTCEATHKTSTSPIVKSFNRNEC
notes: mouse IgA constant region; produced in HEK 293 cells; also called ONA-0-v1 (IgA); ONA-O-v1 (IgA)
B2: 1G04 (chimeric ONA-0-v1 IgG1 LALA antibody) (antibody)
heavy: not shown
light: SIVMTQTPKFLLVSAGDRITITCKASQSVSDDVAWYQQKPGQSPKLLIYYASNRYTGVPDRFTGSGYGTDFTFTISTVQAEDLAVYFCQQDYSSPLTFGAGTKLEIKRTVAAPSVFIFPPSDEQLKSGTASVVCLLNNFYPREAKVQWKVDNALQSGNSQESVTEQDSKDSTYSLSSTLTLSKADYEKHKVYACEVTHQGLSSPVTKSFNRGEC
notes: Human IgG1 with the LALA alteration, human kappa light chain; also called 1G04 (IgG1)
B3: 1G06 antibody (chimeric ONA-0-v1 IgG1) (antibody)
heavy: QVQLKQSGADLVRPGASVKLSCKASGYTFTDYYINWVKQRPGQGLEWIARIYPGSGNTYYNEKFKGKATLTAEKSSSTAYMQLSSLTSEDSAVYFCARGIGGGFGMDYWGQGTSVTVSSASTKGPSVFPLAPSSKSTSGGTAALGCLVKDYFPEPVTVSWNSGALTSGVHTFPAVLQSSGLYSLSSVVTVPSSSLGTQTYICNVNHKPSNTKVDKKVEPKSCDKTHTCPPCPAPESTRGPSVFLFPPKPKDTLMISRTPEVTCVVVDVSHEDPEVKFNWYVDGVEVHNAKTKPREEQYNSTYRVVSVLTVLHQDWLNGKEYKCKVSNKALPAPIEKTISKAKGQPREPQVYTLPPSRDELTKNQVSLTCLVKGFYPSDIAVEWESNGQPENNYKTTPPVLDSDGSFFLYSKLTVDKSRWQQGNVFSCSVMHEALHNHYTQKSLSLSPGK
light: B2 light

How the values were obtained:
[1] = biological target: T1, human CD36 recombinant protein (Sino Biological, reference 10752-H08H) (human, UniProt P16671 30-439); assay: estimated from ELISA, CD36 coated on plate; human CD36 coated on plate
T1 construct: Bought recombinant protein
Procedure: (§1) To perform ELISA assays, 96-well ELISA plates were coated over night with human CD36 (Sino Biological, reference 10752-H08H) or mouse CD36 (Sino Biological, reference 50422-M08H) recombinant proteins at a concentration of 0.25 mg/ml. After two washes with PBS, plates were blocked with 4% skimmed milk in PBS for 1 hour at 37° C. Blocking solution was discarded and plates were washed five times with 200 μl/well PBS-Tween20 (0.5%). Primary antibodies were either omitted (control blocking solution treatment) or mixed in blocking solution at several dilutions ranging from 0.01 nM to 0.5 μM. The primary antibody solutions were added to the wells and incubated over night at 4° C. After 5 washes with 200 ul/well of PBS-Tween20 (0.5%), plates were incubated for 1 hour at room temperature with a goat anti-mouse HRP-conjugated antibody (Abeam, reference ab97235) diluted 1:2000 in blocking solution. Plates were then washed 5 times with 200 μl/well of PBS-Tween20 (0.5%), incubated with 100 μl/well TMB and detected after 10 minutes, 30 minutes, or 60 minutes with a spectrophotometer at a wave length of 630 nm.

[2] = biological target: T1, human CD36 recombinant protein (Sino …); assay: SPR Biacore T200, antibody captured on anti-mouse IgA, CD36 analyte, 2-state model
Procedure: (§2) The affinity of ONA-0-v1, 1G04, and a commercial anti-CD36 antibody (JC63.1) for human CD36 was also measured by surface plasmon resonance (SPR) using a Biacore T200. 1G04 was analysed using a protein A capture surface, with a capture range of 100-150 RU and an antigen titration range of 3.3-333 nM. The mouse antibodies ONA-0-V1 and the commercial anti-CD36 antibody were analysed using an anti-mouse IgA capture surface, with a capture range of 160-180 RU and an antigen titration range of 3.3-333 nM. For each single analysis cycle a titration of five antigen concentrations were injected over the captured antibody and then the dissociation of the complex was measured. A double referencing method was employed in which data from the reference surfaces where no antibody was captured (fc 1 and 3 respectively) were subtracted from the antibody bound capture surface (fc 2 and 4). Blank injections of buffer were run for every antigen titration cycle and then subtracted from analyte injection cycles, to correct for small changes in the antibody capture surface density. All analysis was performed at 25° C., and the sample rack was kept at 6° C. during experimental runs. Each experiment was run at least three times with the mean binding constants generated from at least two independent assays reported. All analysis was performed in PBS-T running buffer at 40 μL/min.

[3] = biological target: T2, mouse CD36 recombinant protein (Sino Biological, reference 50422-M08H) (mouse, UniProt Q08857 30-439); assay: ELISA, plate coated with mouse CD36, OD630, panel 'Coating: mouse CD36'
T2 construct: Bought recombinant protein; also called murine CD36
Procedure: as §1

[4] = biological target: T2, mouse CD36 recombinant protein (Sino …); assay: estimated from ELISA, CD36 coated on plate; mouse CD36 coated on plate
Procedure: as §1

[5] = biological target: T3, human CD36 on cells overexpressing human CD36 (human, UniProt P16671 2-472); assay: FACS on cells overexpressing human CD36, % of Binding
Procedure: For FACS analysis, cells were trypsinized, collected in a 15 mL tube and diluted in washing buffer (2% FBS in PBS). Cells were then centrifuged at 1500 rpm for 5 min at 4° C., supernatant was discarded, and cells were resuspended in fresh washing buffer. Anti-CD36 antibodies were either omitted (control wash buffer treatment) or serially diluted in washing buffer (dilution range up to 100 nM), and then added to the cells. Incubation was performed on ice for 1 hour. Cells were then centrifuged at 1500 rpm for 5 min at 4° C., supernatant was discarded, and cells were resuspended in fresh washing buffer. Finally, cells were incubated with a […] (BV421 Rat Anti-Mouse IgA, Becton Dickinson, reference 743293) diluted 1:100 in washing buffer, washed and analysed by FACS.

[6] = biological target: T1, human CD36 recombinant protein (Sino …); assay: SPR Biacore T200, antibody captured on anti-mouse IgA, CD36 analyte 3.3-333 nM, 1-to-1 model
Procedure: as §2

[7] = biological target: T2, mouse CD36 recombinant protein (Sino …); assay: ELISA, plate coated with mouse CD36, OD630nm
Procedure: as §1

[8] = biological target: T1, human CD36 recombinant protein (Sino …); assay: ELISA, plate coated with human CD36, OD630nm
Procedure: as §1

[9] = biological target: T1, human CD36 recombinant protein (Sino …); assay: SPR Biacore T200, antibody captured on protein A, CD36 analyte, 2-state model
Procedure: as §2

[10] = biological target: T1, human CD36 recombinant protein (Sino …); assay: ELISA, plate coated with human CD36, OD630, panel 'Coating: human CD36'; Kd printed beside the 1G04 curve
Procedure: as §1

[11] = biological target: T3, human CD36 on cells overexpressing …; assay: FACS on cells overexpressing human CD36, GeoMFI against Log10 mAb Concentration (nM)
[12] = biological target: T1, human CD36 recombinant protein (Sino …); assay: SPR Biacore T200, antibody captured on protein A, CD36 analyte 3.3-333 nM, 1-to-1 model
Procedure: as §2

[13] = biological target: T2, mouse CD36 recombinant protein (Sino …); assay: ELISA, plate coated with mouse CD36, OD630, panel 'Coating: mouse CD36'; Kd printed beside the 1G04 curve
Procedure: as §1

[14] = biological target: T3, human CD36 on cells overexpressing …; assay: FACS on cells overexpressing human CD36, MFI

T1 sequence (P16671 30-439 limits assumed): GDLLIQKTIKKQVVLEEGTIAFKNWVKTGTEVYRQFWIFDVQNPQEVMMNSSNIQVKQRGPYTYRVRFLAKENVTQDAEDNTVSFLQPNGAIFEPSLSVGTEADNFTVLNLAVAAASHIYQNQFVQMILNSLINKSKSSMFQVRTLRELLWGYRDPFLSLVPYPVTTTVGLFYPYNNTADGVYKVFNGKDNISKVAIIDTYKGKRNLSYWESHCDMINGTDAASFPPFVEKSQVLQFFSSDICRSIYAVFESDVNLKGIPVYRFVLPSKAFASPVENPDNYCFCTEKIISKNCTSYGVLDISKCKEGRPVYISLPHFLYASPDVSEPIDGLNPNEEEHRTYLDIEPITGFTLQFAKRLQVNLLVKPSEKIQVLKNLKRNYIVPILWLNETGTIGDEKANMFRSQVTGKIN
T3 sequence (P16671 2-472 limits assumed): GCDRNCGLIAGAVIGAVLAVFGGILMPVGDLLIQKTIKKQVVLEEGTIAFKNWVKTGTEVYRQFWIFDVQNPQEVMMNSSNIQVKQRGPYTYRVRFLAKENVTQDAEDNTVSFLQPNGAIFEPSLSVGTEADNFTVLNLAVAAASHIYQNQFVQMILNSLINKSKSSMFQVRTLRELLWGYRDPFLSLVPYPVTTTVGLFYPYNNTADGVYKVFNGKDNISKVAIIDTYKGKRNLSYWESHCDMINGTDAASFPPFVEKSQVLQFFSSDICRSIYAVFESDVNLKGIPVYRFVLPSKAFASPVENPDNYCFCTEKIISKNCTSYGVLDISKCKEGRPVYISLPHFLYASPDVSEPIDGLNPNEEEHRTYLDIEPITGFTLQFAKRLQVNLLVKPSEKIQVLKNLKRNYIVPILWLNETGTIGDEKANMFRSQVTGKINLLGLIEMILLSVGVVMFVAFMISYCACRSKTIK
T2 sequence (Q08857 30-439 limits assumed, stated change not applied): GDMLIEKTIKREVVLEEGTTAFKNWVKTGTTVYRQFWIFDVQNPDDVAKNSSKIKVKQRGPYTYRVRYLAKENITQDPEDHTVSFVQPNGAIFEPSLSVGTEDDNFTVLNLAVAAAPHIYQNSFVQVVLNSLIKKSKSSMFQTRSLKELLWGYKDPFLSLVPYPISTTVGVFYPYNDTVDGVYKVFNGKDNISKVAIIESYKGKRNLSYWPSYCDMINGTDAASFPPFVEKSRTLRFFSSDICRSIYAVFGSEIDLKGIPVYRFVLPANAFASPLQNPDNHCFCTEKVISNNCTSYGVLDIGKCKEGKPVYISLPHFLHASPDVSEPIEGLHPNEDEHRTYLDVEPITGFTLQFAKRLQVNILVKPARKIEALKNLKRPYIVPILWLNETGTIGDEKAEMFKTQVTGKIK

Row | Binder | Kd [1] | Kd [2] | EC50 (read off the curve) [3] | Kd [4] | EC50 (read off the curve) [5] | Kd [6] | koff [6] | kon [6] | EC50 (read off the curve) [7] | EC50 (read off the curve) [8] | Kd [9] | Kd [10] | EC50 (read off the curve) [11] | Kd [12] | koff [12] | kon [12] | Kd [13] | EC50 (read off the curve) [14]
1 | B1 | ~0.04 nM | 8.72 nM | ~1 nM | ~0.1 nM | ~0.03 nM | 5.85 nM | 0.00354 s⁻¹ | 632000 M⁻¹ s⁻¹ | – | – | – | – | – | – | – | – | – | –
2 | B2 | – | – | – | – | ~0.03 nM | – | – | – | ~0.3 nM | ~0.08 nM | 2.78 nM | 0.04 nM | ~0.4 nM | 1.74 nM | 0.000159 s⁻¹ | 100000 M⁻¹ s⁻¹ | 0.1 nM | ~0.2 nM
3 | B3 | – | – | – | – | – | – | – | – | – | ~0.08 nM | – | – | ~0.4 nM | – | – | – | – | –
